Results: patent US10435668

Legend:
[1] = biological target: 2C T cell receptor on CD8+ T cells of 2C TCR transgenic mice (mouse); experiment: flow cytometry, Alexa 647 labeled particles bound to activated 2C T cells (seven days after peptide activation)
[2] = biological target: 2C T cell receptor on CD8+ T cells of 2C TCR transgenic mice (mouse); experiment: estimated from dissociation data, naive cells (6.8 contacts)
[3] = biological target: 2C T cell receptor on CD8+ T cells of 2C TCR transgenic mice (mouse); experiment: flow cytometry off-rate assay on naive 2C T cells, APC-labeled nanoparticles bearing K^b-SIY alone, 1B2 added to prevent re-binding, exponential fit
[4] = biological target: 2C T cell receptor on CD8+ T cells of 2C TCR transgenic mice (mouse); experiment: flow cytometry off-rate assay on naive 2C T cells, derived from off-rate
[5] = biological target: 2C T cell receptor on CD8+ T cells of 2C TCR transgenic mice (mouse); experiment: equilibrium particle binding assay, flow cytometry, activated against naive T cells
[6] = biological target: 2C T cell receptor on CD8+ T cells of 2C TCR transgenic mice (mouse); experiment: flow cytometry, Alexa 647 labeled particles bound to naive CD44lo 2C T cells
[7] = biological target: 2C T cell receptor on CD8+ T cells of 2C TCR transgenic mice (mouse); experiment: flow cytometry off-rate assay on activated 2C T cells, derived from off-rate
[8] = biological target: 2C T cell receptor on CD8+ T cells of 2C TCR transgenic mice (mouse); experiment: flow cytometry off-rate assay on activated 2C T cells, APC-labeled nanoparticles bearing K^b-SIY alone, 1B2 added to prevent re-binding, exponential fit
[9] = biological target: 2C T cell receptor on CD8+ T cells of 2C TCR transgenic mice (mouse); experiment: estimated from dissociation data, naive 2C T cells
[10] = biological target: 2C T cell receptor on CD8+ T cells of 2C TCR transgenic mice (mouse); experiment: off-rate assay, flow cytometry, activated against naive T cells
[11] = biological target: 2C T cell receptor on CD8+ T cells of 2C TCR transgenic mice (mouse); experiment: estimated from dissociation data, activated cells (12.6 contacts)
[12] = biological target: pmel T cell receptor on CD8+ T cells of pMEL TCR transgenic mice (mouse) (UniProt Q60696); experiment: flow cytometry, Alexa 647 labeled particles on control non-cognate CD44lo pmel T cells
Chain of UniProt Q60696 (Q60696 whole entry): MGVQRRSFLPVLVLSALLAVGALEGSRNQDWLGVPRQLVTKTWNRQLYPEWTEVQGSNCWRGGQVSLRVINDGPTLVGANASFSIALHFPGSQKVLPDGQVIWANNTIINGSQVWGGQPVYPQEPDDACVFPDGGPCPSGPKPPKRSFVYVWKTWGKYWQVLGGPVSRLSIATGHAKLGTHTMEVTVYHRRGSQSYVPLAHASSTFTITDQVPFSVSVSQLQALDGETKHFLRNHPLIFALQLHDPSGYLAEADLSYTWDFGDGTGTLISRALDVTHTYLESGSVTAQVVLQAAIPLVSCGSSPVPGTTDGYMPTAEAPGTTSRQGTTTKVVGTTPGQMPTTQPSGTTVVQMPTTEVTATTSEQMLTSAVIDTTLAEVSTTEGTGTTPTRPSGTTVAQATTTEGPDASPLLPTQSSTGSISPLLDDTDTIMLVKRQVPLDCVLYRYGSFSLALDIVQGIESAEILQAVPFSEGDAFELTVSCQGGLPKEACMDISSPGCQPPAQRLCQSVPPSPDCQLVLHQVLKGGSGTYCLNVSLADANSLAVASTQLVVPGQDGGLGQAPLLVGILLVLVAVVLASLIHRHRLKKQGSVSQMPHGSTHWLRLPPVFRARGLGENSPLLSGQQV

[13] = biological target: 2C T cell receptor on CD8+ T cells of 2C TCR transgenic mice (mouse); experiment: estimated from dissociation data, activated 2C T cells
[14] = biological target: 2C T cell receptor on CD8+ T cells of 2C TCR transgenic mice (mouse); experiment: estimated from dissociation data, naive 2C T cells; one contact is assumed for the dimer on naive cells
[15] = biological target: 2C T cell receptor on CD8+ T cells of 2C TCR transgenic mice (mouse); experiment: flow cytometry off-rate assay on activated 2C T cells, APC-labeled MHC-Ig, 1B2 added to prevent re-binding, exponential fit
[16] = biological target: 2C T cell receptor on CD8+ T cells of 2C TCR transgenic mice (mouse); experiment: flow cytometry off-rate assay on naive 2C T cells, APC-labeled MHC-Ig, 1B2 added to prevent re-binding, exponential fit

| Substance | MFI [1] [MFI] | percent of MHC-Ig dimers on the particle surface in TCR-MHC contacts [2] [%] | koff [3] [s⁻¹] | Half-Life [4] [min] | fold fewer nanoparticles bound at equilibrium by activated than by naive cells [5] [fold] | MFI [6] [MFI] | Half-Life [7] [min] | koff [8] [s⁻¹] | TCR-MHC Contacts [9] [contacts] | fold slower disassociation from activated than from naive cells [10] [fold] | percent of MHC-Ig dimers on the particle surface in TCR-MHC contacts [11] [%] | MFI [12] [MFI] | TCR-MHC Contacts [13] [contacts] | TCR-MHC Contacts [14] [contacts] | koff [15] [s⁻¹] | koff [16] [s⁻¹] |
| --- | --- | --- | --- | --- | --- | --- | --- | --- | --- | --- | --- | --- | --- | --- | --- | --- |
| Nanoparticles bearing K^b-SIY MHC-Ig alone (iron-dextran nanoparticle, no anti-CD28) (from UniProt P01901 22-305) (peptide-MHC) | 89 | 11 | 0.002 | 8.85 | 2 | 179 | 16.4 | 0.0009 | 6.8 | 2 | 22 | 21 | 12.6 | – | – | – |
| K^b-SIY MHC-Ig dimer (soluble K^b-Ig loaded with SIY peptide) (from UniProt P01901 22-305) (peptide-MHC) | – | – | – | 1.3 | – | – | 1.87 | – | – | – | – | – | 1.7 | 1 | 0.0052 | 0.0089 |
